Read-outs that look alike come from different tables or passages of the source.
How the values were obtained:
Insulin [1] = assay: BLI
Insulin [2] = assay: BLI; remark: listed apart in the source

Kd (Insulin [1]): 1400 nM | koff (Insulin [1]): 0.0006 s⁻¹ | Kd (Insulin [2]): 1800 nM | koff (Insulin [2]): 0.001 s⁻¹ | kon (Insulin [2]): 720 M⁻¹ s⁻¹
B1: Recombinant mouse secretagogin (SCGN) (natural protein)
chain: MDNARRKTPARLDAACFWQIWQRFDKEEKGYIRETELDAFFDHLLAKSGTEDTLMEENVQKVKEQLMTSHNVSKEGRILMKELASMFLSEDENFLLFFRLETPLDNSVEFMQIWRKYDADSSGFISAAELCNFLRDLFLHHKKNISEAELEEYTSTMMKIFDKNKDGRLDLNDLARILALQENFLLQFKMDASSTEERKRDFEKIFAHYDVSKTGALEGPEVDGFVKDMMELVQPSISGVDLDKFREILLRHCDVNKDGKIQKSELALCLGLKINP

Reference: article PMC6864339
